The values below come from US20190185570A1 (IGM BIOSCIENCES, published 2019).

In experiment [1] the target is Fc fusion protein of Human CTLA4 (human) (UniProt P16410). Briefly: BLI (Fortebio), human CTLA4 Fc fusion immobilized by amine reactive chemistry. In general terms: Biolayer interferometry detects binding as a change in optical thickness at a sensor tip.
The target of experiment [2] is DR5 (UniProt O14763 56-440, limits assumed). Briefly: cell-based or functional assay.

Sequence of Fc fusion protein of Human CTLA4 (human) (P16410 36-161 limits assumed): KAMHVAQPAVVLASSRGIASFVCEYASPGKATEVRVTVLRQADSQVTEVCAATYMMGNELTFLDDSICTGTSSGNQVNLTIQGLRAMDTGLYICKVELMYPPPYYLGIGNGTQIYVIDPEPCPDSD

On to “Anti CTLA4 IgG (BioLegend A3.B10.G1) (antibody)”, for which the dissociation constant Kd (in general, the equilibrium constant for the complex coming apart) in experiment [1] is 2 nM.

B1: anti-DR5 IgM (antibody, V domains shown)
VH: EVQLVQSGGGVERPGGSLRLSCAASGFTFDDYGMSWVRQAPGKGLEWVSGINWNGGSTGYADSVKGRVTISRDNAKNSLYLQMNSLRAEDTAVYYCAKILGAGRGWYFDLWGKGTTVTVSS
VL: SSELTQDPAVSVALGQTVRITCQGDSLRSYYASWYQQKPGQAPVLVIYGKNNRPSGIPDRFSGSSSGNTASLTITGAQAEDEADYYCNSRDSSGNHVVFGGGTKLTVLG
Regarding B1, the “cytotoxic effect, cell viability of COLO205 cells (Cell-Titer Glo), fold against the corresponding IgG” value in experiment [2] is above 1000 fold.
